Experimental data taken from ChEMBL document CHEMBL3526099, “Metabolism of triethylenetetramine and 1,12-diamino-3,6,9-triazadodecane by the spermidine/spermine-N(1)-acetyltransferase and thialysine acetyltransferase” (Drug Metab Dispos, 2013).

Assays:
NCCNCCNCCN = assay: not read
NCCCNCCNCCNCCN = assay: Drug metabolism assessed as mouse SSAT1-mediated metabolite formation; type: ADME

Sequence of Diamine acetyltransferase 1 (Homo sapiens) (chain, as listed by the source): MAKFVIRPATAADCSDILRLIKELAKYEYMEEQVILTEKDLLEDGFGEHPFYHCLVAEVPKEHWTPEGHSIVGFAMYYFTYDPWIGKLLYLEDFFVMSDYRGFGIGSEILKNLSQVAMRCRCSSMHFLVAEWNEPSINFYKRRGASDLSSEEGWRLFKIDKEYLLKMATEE
Sequence of Diamine acetyltransferase 1 (Mus musculus) (chain, as listed by the source): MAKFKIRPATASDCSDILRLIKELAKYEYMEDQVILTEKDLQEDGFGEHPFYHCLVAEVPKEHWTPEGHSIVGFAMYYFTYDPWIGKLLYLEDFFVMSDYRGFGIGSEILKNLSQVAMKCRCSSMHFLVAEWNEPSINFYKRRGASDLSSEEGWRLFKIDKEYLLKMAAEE

“Diamine acetyltransferase 1 (Homo sapiens)” showed a Km (NCCNCCNCCN) of 83 µM and a Vmax (NCCNCCNCCN) of 0.9 µmol/min/mg.
In the case of “Diamine acetyltransferase 1 (Mus musculus)”, the Km (NCCCNCCNCCNCCN) is reported as 106 µM and the Vmax (NCCCNCCNCCNCCN) is reported as 1.17 µmol/min/mg.
